# Results from a protein production outcome set (Wang et al. 2014).
# Assay: label from the status in PepcDB records
# 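Note: failed if final PepcDB status was selected cloned or expressed and not failed if soluble or beyond.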
row,Sequence,protein production
1,MNSDGSDNFELVKKSYGRNFSGISGCAWSPDGSRIAYISSDHNGSDRLVTLNPDGSNEQIVASFAEISALAWAPDSSGMAFNAAYSEDGQTGIYLADLESSEPVFLVRGEIRQQIQSWQSEVWSPDGSRILYSSNENGNSDTNENGNSDIYSVNTDGSEKIQLTDDNSKDYSPCFSPDGSKIIFISDRTGHSSIWIMSSNGDKEEELTEGFEGIHDFSWNPNGQKIAFSSDSNSYIQEIDYSESGDEDSQDDSSSDDSDNDTEVNPEYLHMEILSPDLNFAASQGTPELITVRITNNSGSPVQSSGFKFIKANFSNGDPELQLFDDGTHEDITASDGIFSNQWIPVNTTGLPLTLCILWASADHESLGDAEQIISGTISRKPIPSDLVIENISWSPADPYVNDNITFSITSANRGSGPSEACKVKCYINGNEAYSYSLPELEARSSTSIIFSWIPTAPGNIDVKAVVDEENQVSESVEENNEKSVSFSVKSLTPSTSSGKSGGKSSSSGGGGGGGGSPEPASNVRIKELSQQYITSGKYAKFAFPRNATCVTHVAFNSRRTAGKTTTIVEMLKNKSTRVPDLPAGKIYENVNIWVGNKGTADPENIENAVVGFRVEKSWITLNDVDPASVRLWRLSSGEWEELSIRQSGEDDRYSYFEAQTEGFSHFVITAPSGENETIENALKSSIVPPVRSSAEVMEELFGKLSGKQNADFPVISAMSVNESGSEPEAPSTAGHAADRITGRGIIKVLVVIALLSVTGFLGSLILRKQN,failed
2,MNSEIFRIFRKKYSEEIRNPPMNATTLPEALKLMQYIGDAIGTIRDPQELFRTVTDKLRLLFAFDSAVIITIDRERREASVFFEMLRFELPEQLRHQTRSIAGTWLEGHLDDRTVTVASIARDIPSFGADGAPLLWTLHELGMRQIVLSPLRSGGRVIGFLSFVSAEEKLWSDGDKSLLSGVSSSIAIAVSNALAYEELRQRE,failed
3,MNSFAEKLMVGATAPSASVELPLGDRVRCVLVHEFLSASECEALIEATEQCGFASAGSDYPSSYRDNDRIVADDPAMAGRLFERLKHCASRMPKLGTVIDEDGWRPVGINERLRFCRYRPGTQFRAHQDGVHHRQRQQSRLTFMIYLNDDAFSGGETLFFEGRSAAMSNRDSTLRLRPRKGSLIVFDHTLWHAGALVDAGQKYVMRSDLMYEPQQSLQVDGPFQPGHRGYVWALADLGDRGFASAGRDATIRLWDHEGRCLGQLDGHTQSILGLVDVAPGELVSHSRDRTVRHWSLATGKSTLVGTSDSAVLSSARLGADRLVTGAADGCLTVWNLATGAADRRQAHACWVWAIAPTGDGSFASASEDGTVRLWQPEERDCVQVLDLGRPLRMLASWIDADGSVTLAVGDLDGAVHLLATEPRLALLDCLAAHDGPVRRVRFEARHMLLTCGEDGLVRRWNLPSRQGAIIGSHDNFATDVLPTRAGGWISCGYDGRILVHGDKG,failed
4,MNSFSSKNPEGCSLKVLIKYLLKLSVVPFLIGLGGFIVFVSLEILYQLSDLIVRHRVGIEKLFLMLYYYLPYFVAMGVPVGVLLAIFWTFSRLSEERELMAIQVHGISQKNLIVPFLILGALLSIAVFFLSDQIVPEYQSKAEEAMSKYVLKKPEVFVVENVISKIGDDQYFYVEKYDERTSTMWNVVIFRYGHEETIVTAKRVQKKGNDWYLFDGNYYTVDKDGFLKLDVHFSEMKLDITEDIEKLLRVGKTPKEMTGKELKEKIEFFKKVGVKPSPWVVELHSRYANSLTPIVIVLVGVPLSLLFQLRSKSWGVIFTFVLVVLYQGSGAWLSAMGKENLLNPVLAPWIPNIVFTIVGTLLFILLDTFFAYRITEFLSRLFFVAFIFTVSSLFSSQVVIVSDRMEKFPEEMVFHGSVEIAYKDMTVQASEATIQLTEEGKAKKLEASGGVIYRKADTILMGEHLIFYLENEKSVLTHIRGSTVLEIEKEKKKIYLSGEDLTSEGSRTIVDMGSISTCSETPPHYKLKARYIEIKENDYLLAKDVVFYLLEIPLFYQPIFFTSLSDKPQPFSVEVGVGNNPHLKTSYNVSYPSGLLYFSTKSVLSGGLSKELNWNHKMGSWSLNLDYKESTSHSVLVKIFDSKNTFLFSQKNEERIHQFERKEKILNGSLNVVLRKESDGEDSYILPRVTVKKVSVKTGVGTFSVDSFNHETRIEDQEKRNSGSVSLSFRSVPFLLFQSVSVSTTGKYLFENQNLDERTSYLKTDSIWDFQNLSLGKFLVLDDKIYAGVYRSNEDGYRVGNLFTTTLRVPLGPFSFESYYKLFTVSGENLRKFSQNESKNEVDLKVSFSYENFKSSLETTYDFLEKEFSDPYLKTSYSFKTGDITHTVDSTTRFVLDEISRSYTTWNFQQRMGAFLNRFYFTYYYREPHVKYVEDQMRIYGKNFLFMENPRITTYTKLSVDPFELDEFWIRGTFKKGESTHSLKMSYSSDNLEFSYQTKNGDPALEISFSLKDWNVEKFSLSVEKALHCLGTKISTSFGRNFTLESFSILFFIRDFPNSGIGFDTEEGIGLNVF,failed
5,MNSFWLSLAPVLWLTIIAIPVGILFNAAIVFGLYSIILLGIVIYHIHTLYCLEQWLHHSDLSYATVPDRSGLWGVVFARLARFVRRHDKERLGLNTSLERLQRATSALPEGIVILGDKDQIEWCNSAAERHLGLNLEMDAGQHITRMVRQVRFVAYLDMGDFSKPFLLNQSRLRDVLLSIQIVPYGDREKLLISQDVTRFEKIEIMRRDFVANVSHELRTPLTVIGGFLETLLEENKISGEMEKNALRLMSDQAIRMRRLVEDLLTLSRLENAGNNLTEEQVDVVKLLQGLYQEAQSLSAGRHVISLNLASHAMLLGSEDELRSAFENLISNAVRYTPESGIISLNWVVENGKGLFYVQDSGIGIEPNHIPRLTERFYRVDRSRSRETGGTGLGLAIVKHVLNRHQASMEITSQPGAGSIFRIWFPSNRVLPAETAPVISSSPEHTKQNSAA,failed
6,MNSFWTFLQLIFVILQVTSLALYALLPAPWSDTVLVAMILFSLIIGIVIWWWSRRNALTAPFRQPFLSSDSLQLFEQVFNDLPTRVYWRDPELKLLGGNRAFANDFGIDPESLAGKTDAEIDSLASNDVLLERDRKTFSQQAPSVNAEIELKVSGKSQWVEHSSVPLYDDDHNIIGILGSYYDISGIKSVAEEMEKAKETAERANQSKGEFLANMSHEIRTPINAIVGMANLCLKTELTQKQKRYIKVIDSSSQALLGVINDILDFSKIDAGKLTVERIPFDLQDVLTSLADMFAYRAYDKDLEFIINLPANIPTRLIGDPLRLNQVLVNLISNAIKFTEDGEINVAVNLLDSSRDNVLLRISVTDTGIGMDEEQRANLFKAFTQADTSTTRKYGGTGLGLAISRRLILLMGGDIGVTSAAGQGSTFYIEVELPLQTEQDNSHHQYLLQKLKGVRILAIDDNLSTREMLYEMLRSYQVDVKVCRTAEQALQVFQLSVEDNNPYQLVLVDWRLPGMDGLEFCQKITERYAEDIRPKMTLATGYYAEELSEKAKQAGVNDIISKPFTASTLGRSLTSTLFQRELSDADDADSGDGIPESILRAPILVVEDNEINQQVAREILSSHKFKVDIVENGQLAVEAVHNKNYSLVLMDIQMPVMDGLKAAQTIRADFNYQQLPILAMTANAMSGDEERSLAAGMQGHIAKPIDEQQLIKAIIKWAVPGDYTNNQQPEVPPESKQDEVNKPPVRIPQVKGIEFETALKRLQYNVELYLKLVEQLYETYQGSATKVSDFITRGQHESARRYFHSLKGAAANLGFTQLQSKAADLEQFMAEGNIDKVADQITELEKRLRYAHQAAVDLEAIQQHQS,failed
7,MNSGTLLGKASISFSRPVYIQSCASVVGPKEGDGPLKNCFDMICDDPMFGEKKWEAAESAMQKEAAVLAIGKAGLTPDDIRFVFAGDLLAQTIASSFGIAEMGIPFFGLYGACSTMGESLSLGAIAVSAGYGHHILCATSSHFATAEKEFRFPLGYGCQRPLSATWTVTGSAACILSPEAPHPSEIVGSSLLRSTLGSVAITGITTGKVIDFGFRDSLNMGGCMAPAACDTIYRNFEDFGRSVNDYDAVLTGDLGVVGRQILLDLLKEKNIDLSSVHQDCGLLIYDNQKQDTHSGGSGCGCAASVLAAYILPRVVSGFWKRVLFVPTGAMLSKVSFNEGESVAGIAHGVVIEHISKETEV,failed
8,MNSLPIADLLVSAVIAACIVLSAMRGVIAEAGSMAAWVVSFFFAKLFAASFADLAFASFQPRLFALALSFISLFVIACLIQKMLRSLLTSAVSAVGLGFANRILGGVFGALKGVLIVTLLVMLASKTDLPDTEEWRQSYTLPFFVSLSEAVLNHSGGTAETPEDD,failed
